For test [1], the target named is T1, PTN secreted by SW13/PTN cells (SW13 human adrenal carcinoma cells stably transfected with PTN cDNA) (human) (UniProt P21246).
T1 sequence: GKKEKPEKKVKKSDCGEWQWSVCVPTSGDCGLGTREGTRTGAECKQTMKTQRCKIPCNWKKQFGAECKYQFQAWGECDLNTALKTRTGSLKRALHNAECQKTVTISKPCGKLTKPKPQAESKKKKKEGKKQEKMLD
Nature of the test: cell-based or functional assay.

Test [2] concerns the target T1, PTN secreted by SW13/PTN cells (SW13 human adrenal carcinoma cells stably transfected with PTN cDNA) (human). The experiment in a line: ELISA, PTN captured from SW13/PTN supernatant by goat anti-human PTN polyclonal, read at 450 nm. For orientation: An ELISA detects its analyte on a solid surface through an enzyme-linked reagent.
Test [3] deals with T2, recombinant human PTN (R & D Systems, cat# 252-PL) (human) (UniProt P21246).
T2 sequence: T1 sequence
Nature of the test: ELISA, plate coated with rhPTN, hybridoma antibody, read at 450 nm.

Where only a bound is given, the exact number is not on record here.

B1: monoclonal antibody produced by the hybridoma cell line 3B10 (antibody, V domains shown)
VH: QVQLQQSGPELVKPGASVKISCQASGYAFSSHWMNWVKQRPGKGLEWIGRIYPGDGDSLYNGKFKGKATLTADKSSTTVYMQLSSLTSEDSAVYFCARTRAYGPAWFAYWGQGTLVTVSA
VL: DIVMTQSPSSLAMSVGQKVTLSCRSSQSLLDSNNQKNYLAWYQQKPGQSPKLLVYFASIRESGVPDRFIGSGSGTDFTLTITSVQAEDLADYFCQQHYSTPLTFGAGTKLELK
modifications: N-terminus of the heavy chain blocked, most likely modified NH2-terminal glutamine
For the molecule B1, in test [1], the Proliferation NIH 3T3 (inhibition) was found to be 50 % inhibition, the Proliferation U87 MG (inhibition) was determined as 50 % inhibition, the Proliferation WI38 (inhibition) is 25 % inhibition and the Soft Agar (inhibition) is 100 % inhibition. This molecule also registered an inhibition of SW13 colony formation in soft agar, antibody at 10 ug/ml in test [1] of under 95%. The molecule further came in with an ELISA OD in test [2] of 0.139 OD. Further, the ELISA OD in test [3] was found to be 0.597 OD.

For the origin of these results see patent US20040234519A1.
